From paper PMC11168072
Several values for one entry are separate records, joined by “and”; a condition that tells them apart may be missing. Identical values can stand only once.

Experiments:
[1] = biological target: DtpA, A-type dye-decolorizing peroxidase from Streptomyces lividans (Streptomyces lividans); experiment: AUC; sedimentation velocity, absorbance at 410 nm, 40,000 rpm, 20°C, 50 mM HEPES pH 7.0, 100 mM NaCl, protein 0.75-0.85 μM, c(S) model in SEDFIT
[2] = biological target: DtpAa, A-type dye-decolorizing peroxidase from Streptomyces lividans (Streptomyces lividans); experiment: as above
[3] = biological target: DtpB, B-type dye-decolorizing peroxidase from Streptomyces lividans (Streptomyces lividans); experiment: as above
[4] = biological target: DtpB, B-type dye-decolorizing peroxidase from Streptomyces lividans (Streptomyces lividans); experiment: cryo-EM structure; single particle, Titan Krios 300 kV, DtpB ~6 mg/mL with 8 mM CHAPSO, D3 symmetry imposed, 3.02 Å map of the hexamer
[5] = biological target: DtpB, B-type dye-decolorizing peroxidase from Streptomyces lividans (Streptomyces lividans); experiment: cryo-EM structure; single particle, Talos Arctica 200 kV, DtpB ~6 mg/mL with 8 mM CHAPSO, C1 symmetry, low resolution maps of quasi-hexamer (14.5 Å) and dodecamer (13.4 Å)

Which results are given for “DtpA, A-type dye-decolorizing peroxidase from Streptomyces lividans (enzyme)”?
proportion of the sedimenting species (ratio), species 1, dimer [1]: 76; proportion of the sedimenting species (ratio), species 2, tetramer [1]: 13; stoichiometry N [1]: 2 and 4

How did the stoichiometry N [2] turn out when “DtpAa, A-type dye-decolorizing peroxidase from Streptomyces lividans (enzyme)” was run?
The stoichiometry N was 2.

With “DtpB, B-type dye-decolorizing peroxidase from Streptomyces lividans (enzyme)” as the substance, how does the proportion of the sedimenting species (ratio), species 1, dimer [3] read?
The proportion of the sedimenting species (ratio), species 1, dimer was 2.5.

What about the proportion of the sedimenting species (ratio), species 2, hexamer [3] of the same substance?
The proportion of the sedimenting species (ratio), species 2, hexamer was 82.

And the proportion of the sedimenting species (ratio), species 3, dodecamer [3]?
The proportion of the sedimenting species (ratio), species 3, dodecamer was 10.

What about the stoichiometry N [4] of the same substance?
The stoichiometry N was 6.

And the stoichiometry N [5]?
The stoichiometry N was 12.
